Test results taken from PMC1514790, “Tomosyn Inhibits Synaptic Vesicle Priming in Caenorhabditis elegans” (PLoS Biology, 2006).

Biological target: T1, C. elegans syntaxin-GST (UNC-64 cytoplasmic domain, aa 1-266) (C. elegans, UniProt O16000 1-266)
T1 construct: C. elegans syntaxin (UNC-64), cytoplasmic domain aa 1-266, lacking the TM domain, cloned into pGEX-2T; pGEX-2T normally puts GST at the N-terminus (surmise); also called GST syntaxin; source: recombinant, batch-purified with glutathione agarose under native conditions
T1 sequence (looked up): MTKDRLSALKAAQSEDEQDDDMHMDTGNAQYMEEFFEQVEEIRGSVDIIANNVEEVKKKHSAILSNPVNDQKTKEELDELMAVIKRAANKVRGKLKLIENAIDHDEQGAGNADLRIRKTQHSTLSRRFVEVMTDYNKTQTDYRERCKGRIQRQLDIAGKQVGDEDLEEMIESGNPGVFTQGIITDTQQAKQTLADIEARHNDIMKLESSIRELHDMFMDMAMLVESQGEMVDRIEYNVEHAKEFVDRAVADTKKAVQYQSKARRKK
Experiment: pull-down; ~1.6 uM each of C. elegans syntaxin-GST, rat SNAP-25-His6 and His6-TOM-1Ct or His6-SNB-1, 2 h to overnight at 4 °C in D-buffer, isolated on glutathione agarose; Coomassie Blue staining, densitometry
Details: both partners purified

binding result: binds
B1: C. elegans synaptobrevin SNB-1 cytoplasmic domain (aa 1-88), His6T7-tagged (domain or fragment, UniProt O02495 1-88, looked up)
chain: MDAQGDAGAQGGSQGGPRPSNKRLQQTQAQVDEVVGIMKVNVEKVLERDQKLSQLDDRADALQEGASQFEKSAATLKRKYWWKNIKMM
notes: C. elegans synaptobrevin (SNB-1), cytoplasmic domain aa 1-88, lacking the TM domain, cloned into pRSETC; also called His6T7-tagged SNB-1; His6-SNB-1; source: recombinant, purified (Ni-NTA agarose)
